Data taken from the supplement of paper PMC10567573.

B1: KLHL14 (parent)
chain: NETGYLSSVECYNLETNEWRYVSS
B2: SPOPL (parent)
chain: PDDKLTLFCEVSVVQDSVNISGHT

Variants of: B1
Test: protein stability index of a GFP-peptide fusion (GPS, HEK-293T) (PSI 1-6); higher = more stable
Details: c terminus: a fixed tail appended
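Further: lentivirally expressed fusions sorted by FACS into six bins by GFP to DsRed ratio, PSI derived from sequencing read proportions per bin multiplied by bin number.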

Variant | protein stability index
NETGYLSSVECYNLETNERRYVSS | 4.92
NETGYLSSVECYNLETNEPRYVSS | 3.66
NETGELSSVECYNLETNEWRYVSS | 4.24
NETGDLSSVECYNLETNEWRYVSS | 4.57
NETGILSSVECYNLETNEWRYVSS | 4
NETGGLSSVECYNLETNEWRYVSS | 4.01
NETGYLSSVECYNLETNEWRYVSM | 3.93
NETGYLSSVECYNLETNEWRYVSP | 4.2
NETGYLSSVECYNLETNEWRYVSL | 3.41
NETGYLSLVECYNLETNEWRYVSS | 2.77
NETGYLSTVECYNLETNEWRYVSS | 3.27
NETGYLSVVECYNLETNEWRYVSS | 2.77
NETGYLSIVECYNLETNEWRYVSS | 2.29
NETGYLSSVECYNLEQNEWRYVSS | 4.16
NETGYLSSVECYNLEFNEWRYVSS | 2.71
NETGYLSSVECYNLEVNEWRYVSS | 3
NETGYLSSVECYNLEWNEWRYVSS | 2.05
NETGYLSSVECYNLELNEWRYVSS | 2.63
NERGYLSSVECYNLETNEWRYVSS | 2.96
NESGYLSSVECYNLETNEWRYVSS | 3.4

Variant | protein stability index
NEPGYLSSVECYNLETNEWRYVSS | 3.85
NETGYLSSVECYNLETNEWRYMSS | 2.95
NETGYLSSVECYNLETNEWRYRSS | 3.2
NETGYLYSVECYNLETNEWRYVSS | 2.26
NETGYLSSVECYQLETNEWRYVSS | 2.8
NETGYLSSVECYSLETNEWRYVSS | 2.69
NETGYLSSVECYHLETNEWRYVSS | 2.73
NETGYLSSVECDNLETNEWRYVSS | 4.55
NETGYLSSVECWNLETNEWRYVSS | 3.1
NETGYLSSVECSNLETNEWRYVSS | 4
NETGYLSSVECMNLETNEWRYVSS | 3.5
EETGYLSSVECYNLETNEWRYVSS | 3.95
NETGYLSSVECYNLETNEWSYVSS | 3.04
NETGYLSSVECYNLETNEWHYVSS | 2.83
NETGYLSSVECYNLETPEWRYVSS | 3.42
NETGYLSSVECYNLETYEWRYVSS | 2.64
NETGYLSSVECYNLETIEWRYVSS | 2.31
NETGYLSSVECYNLETNEWRHVSS | 2.96
NETGYLSSVECYNLETNEWRGVSS | 3.14
NETGYLSSVECYNLETNEWRYVIS | 4.09

Variant | protein stability index
NETGYLSSVECYNLETNEWRYVAS | 3.19
NETGYLSSVECYNLETNEWRYVLS | 2.07
NETGYLSSVEHYNLETNEWRYVSS | 4.09
NETGYLSSVEGYNLETNEWRYVSS | 3.91
NETGYLSSVECYNLETNRWRYVSS | 3.68
NETGYLSSVECYNLETNVWRYVSS | 2.62
NETGYLSSVECYNLETNQWRYVSS | 2.93
NETGYLSSVECYNLETNIWRYVSS | 2.68
NETGYLSSRECYNLETNEWRYVSS | 3.41
NETGYLSSYECYNLETNEWRYVSS | 3.14
NETGYLSSVECYNLGTNEWRYVSS | 3.18
NETGYLSSVECYNLVTNEWRYVSS | 2.25
NETGYLSSVECYNLNTNEWRYVSS | 3.03
NETSYLSSVECYNLETNEWRYVSS | 3.22
NETGYLSSVECYNMETNEWRYVSS | 3.46
NHTGYLSSVECYNLETNEWRYVSS | 2.02
NTTGYLSSVECYNLETNEWRYVSS | 2.67
NETGYHSSVECYNLETNEWRYVSS | 4.23
NETGYGSSVECYNLETNEWRYVSS | 3.62

Variants of: B2
Test: as above
Details: c terminus: a fixed tail appended

Variant | protein stability index
PDDKLTRFCEVSVVQDSVNISGHT | 3.94
PDDKLTNFCEVSVVQDSVNISGHT | 4.32
PDDKLTGFCEVSVVQDSVNISGHT | 4.28
PDDKLTSFCEVSVVQDSVNISGHT | 3.49
PDDKLTPFCEVSVVQDSVNISGHT | 4.52
PDDKLTCFCEVSVVQDSVNISGHT | 2.72
PDDKLTWFCEVSVVQDSVNISGHT | 1.75
PDDKLTTFCEVSVVQDSVNISGHT | 3.88
PDDKLTQFCEVSVVQDSVNISGHT | 4.62
PDDKLTFFCEVSVVQDSVNISGHT | 1.81
PDDKLTEFCEVSVVQDSVNISGHT | 4.9
PDDKLTIFCEVSVVQDSVNISGHT | 1.25
PDDKLTVFCEVSVVQDSVNISGHT | 1.92
PDDKLTHFCEVSVVQDSVNISGHT | 3.79
PDDKLTAFCEVSVVQDSVNISGHT | 4.2
PDDKLTMFCEVSVVQDSVNISGHT | 2.68
PDDKLTKFCEVSVVQDSVNISGHT | 4.78
PDDKLTDFCEVSVVQDSVNISGHT | 4.88
HDDKLTLFCEVSVVQDSVNISGHT | 2.18
RDDKLTLFCEVSVVQDSVNISGHT | 2.1
QDDKLTLFCEVSVVQDSVNISGHT | 2.02
YDDKLTLFCEVSVVQDSVNISGHT | 1.69
SDDKLTLFCEVSVVQDSVNISGHT | 2.05
DDDKLTLFCEVSVVQDSVNISGHT | 2.17
FDDKLTLFCEVSVVQDSVNISGHT | 2.36
ADDKLTLFCEVSVVQDSVNISGHT | 1.81

Variant | protein stability index
WDDKLTLFCEVSVVQDSVNISGHT | 2.11
LDDKLTLFCEVSVVQDSVNISGHT | 2.2
GDDKLTLFCEVSVVQDSVNISGHT | 1.99
VDDKLTLFCEVSVVQDSVNISGHT | 1.36
KDDKLTLFCEVSVVQDSVNISGHT | 2.02
IDDKLTLFCEVSVVQDSVNISGHT | 3.71
EDDKLTLFCEVSVVQDSVNISGHT | 2.2
TDDKLTLFCEVSVVQDSVNISGHT | 2
NDDKLTLFCEVSVVQDSVNISGHT | 2.42
CDDKLTLFCEVSVVQDSVNISGHT | 1.93
MDDKLTLFCEVSVVQDSVNISGHT | 1.81
PDDHLTLFCEVSVVQDSVNISGHT | 1.95
PDDILTLFCEVSVVQDSVNISGHT | 1.48
PDDGLTLFCEVSVVQDSVNISGHT | 2.12
PDDLLTLFCEVSVVQDSVNISGHT | 2.39
PDDQLTLFCEVSVVQDSVNISGHT | 2.16
PDDNLTLFCEVSVVQDSVNISGHT | 1.98
PDDTLTLFCEVSVVQDSVNISGHT | 1.53
PDDELTLFCEVSVVQDSVNISGHT | 2.32
PDDCLTLFCEVSVVQDSVNISGHT | 1.56
PDDDLTLFCEVSVVQDSVNISGHT | 2.81
PDDSLTLFCEVSVVQDSVNISGHT | 2.23
PDDMLTLFCEVSVVQDSVNISGHT | 1.58
PDDFLTLFCEVSVVQDSVNISGHT | 2.19
PDDYLTLFCEVSVVQDSVNISGHT | 2.26
PDDRLTLFCEVSVVQDSVNISGHT | 1.79

Variant | protein stability index
PDDPLTLFCEVSVVQDSVNISGHT | 2.27
PDDALTLFCEVSVVQDSVNISGHT | 1.89
PEDKLTLFCEVSVVQDSVNISGHT | 2.29
PADKLTLFCEVSVVQDSVNISGHT | 1.61
PPDKLTLFCEVSVVQDSVNISGHT | 2.71
PYDKLTLFCEVSVVQDSVNISGHT | 1.38
PVDKLTLFCEVSVVQDSVNISGHT | 3.9
PKDKLTLFCEVSVVQDSVNISGHT | 2.02
PLDKLTLFCEVSVVQDSVNISGHT | 1.46
PIDKLTLFCEVSVVQDSVNISGHT | 2.02
PWDKLTLFCEVSVVQDSVNISGHT | 3.07
PQDKLTLFCEVSVVQDSVNISGHT | 3.11
PHDKLTLFCEVSVVQDSVNISGHT | 2.04
PNDKLTLFCEVSVVQDSVNISGHT | 1.44
PMDKLTLFCEVSVVQDSVNISGHT | 1.61
PGDKLTLFCEVSVVQDSVNISGHT | 2.44
PFDKLTLFCEVSVVQDSVNISGHT | 1.5
PTDKLTLFCEVSVVQDSVNISGHT | 1.38
PRDKLTLFCEVSVVQDSVNISGHT | 2.53
PCDKLTLFCEVSVVQDSVNISGHT | 1.62
PSDKLTLFCEVSVVQDSVNISGHT | 1.74
PDDKHTLFCEVSVVQDSVNISGHT | 3.96
PDDKCTLFCEVSVVQDSVNISGHT | 2.88
PDDKFTLFCEVSVVQDSVNISGHT | 1.52
PDDKSTLFCEVSVVQDSVNISGHT | 3.63
PDDKQTLFCEVSVVQDSVNISGHT | 3.73

Variant | protein stability index
PDDKVTLFCEVSVVQDSVNISGHT | 1.81
PDDKRTLFCEVSVVQDSVNISGHT | 3.85
PDDKWTLFCEVSVVQDSVNISGHT | 1.26
PDDKATLFCEVSVVQDSVNISGHT | 3.66
PDDKKTLFCEVSVVQDSVNISGHT | 3.82
PDDKETLFCEVSVVQDSVNISGHT | 3.9
PDDKTTLFCEVSVVQDSVNISGHT | 3.33
PDDKMTLFCEVSVVQDSVNISGHT | 2.21
PDDKITLFCEVSVVQDSVNISGHT | 1.88
PDDKYTLFCEVSVVQDSVNISGHT | 2.28
PDDKPTLFCEVSVVQDSVNISGHT | 4.1
PDDKNTLFCEVSVVQDSVNISGHT | 3.95
PDDKDTLFCEVSVVQDSVNISGHT | 4.41
PDDKGTLFCEVSVVQDSVNISGHT | 3.07
PDDKLNLFCEVSVVQDSVNISGHT | 2.96
PDDKLQLFCEVSVVQDSVNISGHT | 2.58
PDDKLKLFCEVSVVQDSVNISGHT | 3.34
PDDKLELFCEVSVVQDSVNISGHT | 2.33
PDDKLFLFCEVSVVQDSVNISGHT | 2.98
PDDKLWLFCEVSVVQDSVNISGHT | 3.41
PDDKLDLFCEVSVVQDSVNISGHT | 2.84
PDDKLSLFCEVSVVQDSVNISGHT | 2.32
PDDKLCLFCEVSVVQDSVNISGHT | 1.81
PDDKLGLFCEVSVVQDSVNISGHT | 3.19
PDDKLHLFCEVSVVQDSVNISGHT | 2.4
PDDKLYLFCEVSVVQDSVNISGHT | 1.25

Variant | protein stability index
PDDKLPLFCEVSVVQDSVNISGHT | 3.47
PDDKLALFCEVSVVQDSVNISGHT | 2.15
PDDKLRLFCEVSVVQDSVNISGHT | 2.02
PDDKLLLFCEVSVVQDSVNISGHT | 1.73
PDDKLMLFCEVSVVQDSVNISGHT | 1.79
PDDKLILFCEVSVVQDSVNISGHT | 1.8
PDFKLTLFCEVSVVQDSVNISGHT | 1.87
PDYKLTLFCEVSVVQDSVNISGHT | 1.97
PDWKLTLFCEVSVVQDSVNISGHT | 1.73
PDAKLTLFCEVSVVQDSVNISGHT | 2.06
PDEKLTLFCEVSVVQDSVNISGHT | 2.2
PDLKLTLFCEVSVVQDSVNISGHT | 2.11
PDIKLTLFCEVSVVQDSVNISGHT | 2.06
PDTKLTLFCEVSVVQDSVNISGHT | 1.51
PDCKLTLFCEVSVVQDSVNISGHT | 1.75
PDRKLTLFCEVSVVQDSVNISGHT | 2.05
PDNKLTLFCEVSVVQDSVNISGHT | 2.44
PDHKLTLFCEVSVVQDSVNISGHT | 1.47
PDMKLTLFCEVSVVQDSVNISGHT | 1.93
PDKKLTLFCEVSVVQDSVNISGHT | 1.83
PDQKLTLFCEVSVVQDSVNISGHT | 1.95
PDVKLTLFCEVSVVQDSVNISGHT | 1.8
PDPKLTLFCEVSVVQDSVNISGHT | 2.5
PDGKLTLFCEVSVVQDSVNISGHT | 2.43
PDSKLTLFCEVSVVQDSVNISGHT | 1.79
